Results on one molecule are retold here after paper PMC4068106.

As a reminder, the stoichiometry N is a count of units in the complex or per binding partner.

This test has as its target T1, human C-reactive protein (GMP preparation) (human), P02741.
T1 chain: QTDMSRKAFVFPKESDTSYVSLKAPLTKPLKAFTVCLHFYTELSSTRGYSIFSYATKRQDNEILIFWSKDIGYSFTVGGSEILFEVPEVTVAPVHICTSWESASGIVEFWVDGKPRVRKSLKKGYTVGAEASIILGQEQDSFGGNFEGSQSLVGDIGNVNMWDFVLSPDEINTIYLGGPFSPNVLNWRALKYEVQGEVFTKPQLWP
In words: SEC; 0.02 mg in 100 uL on Superdex 200, 0.5 mL/min, 10 mM Tris, 140 mM NaCl, 2 mM CaCl2, pH 8.0; self-assembly of CRP. The conditions noted are these: remark: other sources report otherwise.

B1: human C-reactive protein (GMP preparation), P02741 19-224 (natural protein)
chain: T1 chain
modifications: here or on the partner: N-terminal PCA; N-terminal PCA
In turn, B1 yielded a stoichiometry N of 5.
